Paper PMC6954422

Key:
[1] = molecular target: stammer-less MITF(Δ) protein fragment 217–296 (Mus musculus); assay: SEC
[2] = molecular target: MITF(wt) protein fragment 217–296 (Mus musculus); assay: SEC

| Substance | stoichiometry N [1] | stoichiometry N [2] |
| --- | --- | --- |
| stammer-less MITF(Δ) protein fragment 217–296 (domain or fragment) | 2 | – |
| MITF(wt) protein fragment 217–296 (domain or fragment) | – | 2 |
